This data set has as its target T1, His-RosE (Salmonella enterica serotype Typhimurium) (UniProt Q8ZK37).
T1 sequence: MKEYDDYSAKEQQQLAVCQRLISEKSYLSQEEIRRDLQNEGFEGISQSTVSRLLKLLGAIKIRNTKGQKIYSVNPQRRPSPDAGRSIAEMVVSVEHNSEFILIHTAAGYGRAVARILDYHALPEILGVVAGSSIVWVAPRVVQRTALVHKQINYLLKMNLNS
Put plainly: EMSA. (In general: In EMSA bound probe runs differently from free probe, usually more slowly.)

As to “TAAAAAGTATTTCTTTGATGATTATTCTTAAATTACGATCATAATCATCGATCGTATCGATCTATTTTTATTGTTTTAATTTGAATAAGAATTTTCTTACAACTGATTAGGCATTAGCTGAAATCAATATTTTTCGATGGAAAGTTCAGG (double strand) [stdA upstream region 1]”, the binding entry was “no binding”.

These data come from article PMC2328253.
